Where two headings read alike, the source gives them in different places. One block for each binder: values may come before it.
What was measured:
[1] = target: T1, human alpha-synuclein monomer (human, UniProt P37840 1-140); assay: SPR (Biacore 8K), IgG captured on anti-human Fc, aSyn monomer injected
[2] = target: T1, human alpha-synuclein monomer; assay: as above; remark: listed apart in the source

B1: H3_5_LC2 (antibody, V domains shown)
VH: EVQLVESGGGLVQPGGSLRLSCAASGFTFSNAAMYWVRQAPGKGLELVSRIRTKPNNYATYHADSVKGRFTISRDNSKNTLYLQMNSLRAEDTAVYYCTADFARGDYWGQGTLVTVSS
VL: DIQMTQSPSSLSASVGDRVTITCKASQNINKNLDWYQQKPGKAPKPLIYSTNNLQTGVPSRFSGSGSGTDFTLTISSLQPEDFATYYCYQYKSAWTFGQGTKVEIK
Kd [1]: 3.84 nM

B2: HC6_LC_k3_2_v1 (antibody, V domains shown)
VH: EVQLVESGGGLVQPGGSLRLSCAASGFTFSNAAMYWVRQAPGKGLELVSRIRTKPNNYATYHADSVKGRFTISRDDSKNTLYLQMNSLRAEDTAVYYCTADMATGDYWGQGTLVTVSS
VL: EIVMTQSPATLSLSPGERATLSCKASQNINKNLDWYQQKPGQAPRPLIYSTNNLKTGIPARFSGSGSGTDFTLTISSLQPEDFAVYYCYQYKSAWTFGQGTKVEIK
Kd [2]: 0.22 nM

B3: H3_6_LC2 (antibody, V domains shown)
VH: EVQLVESGGGLVQPGGSLRLSCAASGFTFSNAAMYWVRQAPGKGLELVSRIRTKPNNYATYHADSVKGRFTISRDNSKNTLYLQMNSLRAEDTAVYYCTANMRKGDYWGQGTLVTVSS
VL: DIQMTQSPSSLSASVGDRVTITCKASQNINKNLDWYQQKPGKAPKPLIYSTNNLQTGVPSRFSGSGSGTDFTLTISSLQPEDFATYYCYQYKSAWTFGQGTKVEIK
Kd [1]: 10.3 nM

B4: HC2_L1_2 (antibody, V domains shown)
VH: EVQLVESGGGLVQPGGSLRLSCAASGFTFSNAAMYWVRQAPGKGLELVSRIRTKPNNYATYHADSVKGRFTISRDNSKNTLYLQMNSLRAEDTAVYYCTADMATGDYWGQGTLVTVSS
VL: DIQMTQSPSSLSASVGDRVTITCKASQIINQILDWYQQKPGKAPKPLIYSTNNLQTGVPSRFSGSGSGTDFTLTISSLQPEDFATYYCYQYKSAWTFGQGTKVEIK
Kd [1]: 2.45 nM

B10: HC2_L1_1 (antibody, V domains shown)
VH: EVQLVESGGGLVQPGGSLRLSCAASGFTFSNAAMYWVRQAPGKGLELVSRIRTKPNNYATYHADSVKGRFTISRDNSKNTLYLQMNSLRAEDTAVYYCTADMATGDYWGQGTLVTVSS
VL: DIQMTQSPSSLSASVGDRVTITCKASQNINNNLDWYQQKPGKAPKPLIYSTNNLKTGVPSRFSGSGSGTDFTLTISSLQPEDFATYYCYQYKSAWTFGQGTKVEIK
Kd [1]: 1.2 nM

B12: 20H4_HC5_LC_k3_2_v2 (antibody, V domains shown)
VH: EVQLVESGGGLVQPGGSLRLSCAASGFTFSNAAMYWVRQAPGKGLELLARIRTKPNNYATYHADSVKGRFTISRDDSKNTVYLQMNSLRAEDTAVYYCTADMATGDYWGQGTLVTVSS
VL: EIVMTQSPATLSLSPGERATLSCKASQNINKNLDWYQQKPGQAPRPLIYSTNNLQTGIPARFSGSGSGTDFTLTISSLQPEDFAVYYCYQYKSAWTFGQGTKVEIK
Kd [2]: 1.3 nM

B13: 20H4_HC5_LC_k3_1 (antibody, V domains shown)
VH: EVQLVESGGGLVQPGGSLRLSCAASGFTFSNAAMYWVRQAPGKGLELLARIRTKPNNYATYHADSVKGRFTISRDDSKNTVYLQMNSLRAEDTAVYYCTADMATGDYWGQGTLVTVSS
VL: EIVMTQSPATLSLSPGERATLSCKASQNINNNLDWYQQKPGQAPRPLIYSTNNLKTGIPARFSGSGSGTDFTLTISSLQPEDFAVYYCYQYKSAWTFGQGTKVEIK
Kd [2]: 0.13 nM

B14: HC2_L2_2 (antibody, V domains shown)
VH: EVQLVESGGGLVQPGGSLRLSCAASGFTFSNAAMYWVRQAPGKGLELVSRIRTKPNNYATYHADSVKGRFTISRDNSKNTLYLQMNSLRAEDTAVYYCTADMATGDYWGQGTLVTVSS
VL: DIQMTQSPSSLKSSVGDRVTITCKASQNINKNLDWYQQKPGKAPKPLIYRTKNLQTGVPSRFSGSGSGTDFTLTISSLQPEDFATYYCYQYKSAWTFGQGTKVEIK
Kd [1]: 2.01 nM

B15: HC2_L2_1 (antibody, V domains shown)
VH: EVQLVESGGGLVQPGGSLRLSCAASGFTFSNAAMYWVRQAPGKGLELVSRIRTKPNNYATYHADSVKGRFTISRDNSKNTLYLQMNSLRAEDTAVYYCTADMATGDYWGQGTLVTVSS
VL: DIQMTQSPSSLSASVGDRVTITCKASQNINKNLDWYQQKPGKAPKPLIYSTNKLKTGVPSRFSGSGSGTDFTLTISSLQPEDFATYYCYQYKSAWTFGQGTKVEIK
Kd [1]: 1.78 nM

B16: HC2_L3_1 (antibody, V domains shown)
VH: EVQLVESGGGLVQPGGSLRLSCAASGFTFSNAAMYWVRQAPGKGLELVSRIRTKPNNYATYHADSVKGRFTISRDNSKNTLYLQMNSLRAEDTAVYYCTADMATGDYWGQGTLVTVSS
VL: DIQMTQSPSSLSASVGDRVTITCKASQNINKNLDWYQQKPGKAPKPLIYSTNNLQTGVPSRFSGSGSGTDFTLTISSLQPEDFATYYCYQDKNGWTFGQGTKVEIK
Kd [1]: 4.2 nM

Second part, the binder after the results:

Kd [1]: 3.4 nM
B5: HC2_L3_11 (antibody, V domains shown)
VH: EVQLVESGGGLVQPGGSLRLSCAASGFTFSNAAMYWVRQAPGKGLELVSRIRTKPNNYATYHADSVKGRFTISRDNSKNTLYLQMNSLRAEDTAVYYCTADMATGDYWGQGTLVTVSS
VL: DIQMTQSPSSLSASVGDRVTITCKASQNINKNLDWYQQKPGKAPKPLIYSTNNLQTGVPSRFSGSGSGTDFTLTISSLQPEDFATYYCYQYKFAWTFGQGTKVEIK

Kd [1]: 3.24 nM
B6: HC2_L3_5 (antibody, V domains shown)
VH: EVQLVESGGGLVQPGGSLRLSCAASGFTFSNAAMYWVRQAPGKGLELVSRIRTKPNNYATYHADSVKGRFTISRDNSKNTLYLQMNSLRAEDTAVYYCTADMATGDYWGQGTLVTVSS
VL: DIQMTQSPSSLSASVGDRVTITCKASQNINKNLDWYQQKPGKAPKPLIYSTNNLQTGVPSRFSGSGSGTDFTLTISSLQPEDFATYYCYQYKNAWTFGQGTKVEIK

Kd [1]: 3.28 nM
B7: HC2_L3_6 (antibody, V domains shown)
VH: EVQLVESGGGLVQPGGSLRLSCAASGFTFSNAAMYWVRQAPGKGLELVSRIRTKPNNYATYHADSVKGRFTISRDNSKNTLYLQMNSLRAEDTAVYYCTADMATGDYWGQGTLVTVSS
VL: DIQMTQSPSSLSASVGDRVTITCKASQNINKNLDWYQQKPGKAPKPLIYSTNNLQTGVPSRFSGSGSGTDFTLTISSLQPEDFATYYCYQYKKAWTFGQGTKVEIK

Kd [1]: 2.98 nM
B8: HC2_L3_9 (antibody, V domains shown)
VH: EVQLVESGGGLVQPGGSLRLSCAASGFTFSNAAMYWVRQAPGKGLELVSRIRTKPNNYATYHADSVKGRFTISRDNSKNTLYLQMNSLRAEDTAVYYCTADMATGDYWGQGTLVTVSS
VL: DIQMTQSPSSLSASVGDRVTITCKASQNINKNLDWYQQKPGKAPKPLIYSTNNLQTGVPSRFSGSGSGTDFTLTISSLQPEDFATYYCYQYKYAWTFGQGTKVEIK

Kd [1]: 3.01 nM
B9: HC2_L3_8 (antibody, V domains shown)
VH: EVQLVESGGGLVQPGGSLRLSCAASGFTFSNAAMYWVRQAPGKGLELVSRIRTKPNNYATYHADSVKGRFTISRDNSKNTLYLQMNSLRAEDTAVYYCTADMATGDYWGQGTLVTVSS
VL: DIQMTQSPSSLSASVGDRVTITCKASQNINKNLDWYQQKPGKAPKPLIYSTNNLQTGVPSRFSGSGSGTDFTLTISSLQPEDFATYYCYQFKKAWTFGQGTKVEIK

Kd [1]: 2.84 nM
B11: HC2_L3_4 (antibody, V domains shown)
VH: EVQLVESGGGLVQPGGSLRLSCAASGFTFSNAAMYWVRQAPGKGLELVSRIRTKPNNYATYHADSVKGRFTISRDNSKNTLYLQMNSLRAEDTAVYYCTADMATGDYWGQGTLVTVSS
VL: DIQMTQSPSSLSASVGDRVTITCKASQNINKNLDWYQQKPGKAPKPLIYSTNNLQTGVPSRFSGSGSGTDFTLTISSLQPEDFATYYCYQDKSGWTFGQGTKVEIK

Kd [2]: 0.17 nM
B17: HC5_LC_k3_3 (antibody, V domains shown)
VH: EVQLVESGGGLVQPGGSLRLSCAASGFTFSNAAMYWVRQAPGKGLELLARIRTKPNNYATYHADSVKGRFTISRDDSKNTVYLQMNSLRAEDTAVYYCTADMATGDYWGQGTLVTVSS
VL: EIVMTQSPATLSLSPGERATLSCKASQNINQNLDWYQQKPGQAPRPLIYSTNNLKTGIPARFSGSGSGTDFTLTISSLQPEDFAVYYCYQYKSAWTFGQGTKVEIK

Kd [2]: 0.17 nM
B18: HC5_LC_k3_2_v1 (antibody, V domains shown)
VH: EVQLVESGGGLVQPGGSLRLSCAASGFTFSNAAMYWVRQAPGKGLELLARIRTKPNNYATYHADSVKGRFTISRDDSKNTVYLQMNSLRAEDTAVYYCTADMATGDYWGQGTLVTVSS
VL: EIVMTQSPATLSLSPGERATLSCKASQNINKNLDWYQQKPGQAPRPLIYSTNNLKTGIPARFSGSGSGTDFTLTISSLQPEDFAVYYCYQYKSAWTFGQGTKVEIK

Kd [1]: 4.52 nM
B19: HC2_L3_2 (antibody, V domains shown)
VH: EVQLVESGGGLVQPGGSLRLSCAASGFTFSNAAMYWVRQAPGKGLELVSRIRTKPNNYATYHADSVKGRFTISRDNSKNTLYLQMNSLRAEDTAVYYCTADMATGDYWGQGTLVTVSS
VL: DIQMTQSPSSLSASVGDRVTITCKASQNINKNLDWYQQKPGKAPKPLIYSTNNLQTGVPSRFSGSGSGTDFTLTISSLQPEDFATYYCYQDKRGWTFGQGTKVEIK

Kd [1]: 4.59 nM
B20: HC2_L3_7 (antibody, V domains shown)
VH: EVQLVESGGGLVQPGGSLRLSCAASGFTFSNAAMYWVRQAPGKGLELVSRIRTKPNNYATYHADSVKGRFTISRDNSKNTLYLQMNSLRAEDTAVYYCTADMATGDYWGQGTLVTVSS
VL: DIQMTQSPSSLSASVGDRVTITCKASQNINKNLDWYQQKPGKAPKPLIYSTNNLQTGVPSRFSGSGSGTDFTLTISSLQPEDFATYYCYQYKNGWTFGQGTKVEIK

Kd [1]: 2.93 nM
B21: HC2_L3_10 (antibody, V domains shown)
VH: EVQLVESGGGLVQPGGSLRLSCAASGFTFSNAAMYWVRQAPGKGLELVSRIRTKPNNYATYHADSVKGRFTISRDNSKNTLYLQMNSLRAEDTAVYYCTADMATGDYWGQGTLVTVSS
VL: DIQMTQSPSSLSASVGDRVTITCKASQNINKNLDWYQQKPGKAPKPLIYSTNNLQTGVPSRFSGSGSGTDFTLTISSLQPEDFATYYCYQYKLAWTFGQGTKVEIK

Kd [1]: 5.28 nM
B22: HC2_L3_3 (antibody, V domains shown)
VH: EVQLVESGGGLVQPGGSLRLSCAASGFTFSNAAMYWVRQAPGKGLELVSRIRTKPNNYATYHADSVKGRFTISRDNSKNTLYLQMNSLRAEDTAVYYCTADMATGDYWGQGTLVTVSS
VL: DIQMTQSPSSLSASVGDRVTITCKASQNINKNLDWYQQKPGKAPKPLIYSTNNLQTGVPSRFSGSGSGTDFTLTISSLQPEDFATYYCYQDKKGWTFGQGTKVEIK

— patent publication US20230074436A1 (DENALI THERAPEUTICS, published 2023)
